# From patent US7494767B2, “Assay for TSG101 as inhibitors of HIV production” (priority 2001, dated 2009)
# B1: pIND-h-Tsg101-FLAG: FLAG-tagged wild-type human Tsg101 overexpressed from an ecdysone-inducible plasmid (protein)
# chain: MAVSESQLKKMVSKYKYRDLTVRETVNVITLYKDLKPVLDSYVFNDGSSRELMNLTGTIPVPYRGNTYNIPICLWLLDTYPYNPPICFVKPTSSMTIKTGKHVDANGKIYLPYLHEWKHPQSDLLGLIQVMIVVFGDEPPVFSRPISASYPPYQATGPPNTSYMPGMPGGISPYPSGYPPNPSGYPGCPYPPGGPYPATTSSQYPSQPPVTTVGPSRDGTISEDTIRASLISAVSDKLRWRMKEEMDRAQAELNALKRTEEDLKKGHQKLEEMVTRLDQEVAEVDKNIELLKKKDEELSSALEKMENQSENNDIDEVIIPTAPLYKQILNLYAEENAIEDTIFYLGEALRRGVIDLDVFLKHVRLLSRKQFQLRALMQKARKTAGLSDLY
# modifications: left off: small tags and cut ends
# notes: FLAG-tagged wild-type human Tsg101 overexpressed from an ecdysone-inducible plasmid
# B2: SD5-59 (protein)
# chain: MAVSESQLKKMVSKYKYRDLTVRETVNVITLYKDLKPVLDSYVFNDGSSRELMNLTGTIPVPYRGNTYNIPICLWLLDTYPYNPPICFVKPTSSMTIKTGKHVDANGKIYLPYLHEWKHPQSDLLGLIQVMIVVFGDEPPVFSRPISASYPPYQATGPPNTSYMPGMPGGISPYPSGYPPNPSGYPGCPYPPGGPYPATTSSQYPSQPPVTTVGPSRDGTISEDTIRASLISAVSDKLRWRMKEEMDRAQAELNALKRTEEDLKKGHQKLEEMVTRLDQEVAEVDKNIELLKKKDEELSSALEKMENQSENNDIDEVIIPTAPLYKQILNLYAEENAIEDTIFYLGEGGVIDLDVFLKHVRLLSRKQFQLRALMQKARKTAGLSDLY
# modifications: left off: small tags and cut ends
# B3: p1-p6: p1-p6 region of HIV-1 Pr55Gag fused to GAL4 DNA-binding domain (protein)
# chain: MKLLSSIEQACDICRLKKLKCSKEKPKCAKCLKNNWECRYSPKTKRSPLTRAHLTEVESRLERLEQLFLLIFPREDLDMILKMDSLQDIKALLTGLFVQDNVNKDAVTDRLASVETDMPLTLRQHRISATSSSEESSNKGQRQLTVSGKIWPSYKGRPGNFLQSRPEPTAPPFLQSRPEPTAPPEESFRSGVETTTPPQKQEPIDKELYPLTSLRSLFGNDPSSQ
# Tests used:
# [1] = test system: viral protein (Gag); experiment: Intracellular steady-state level of viral proteins in COS-1 cells (S1 and P1 fractions, Western blot, anti-CA); type: cell-based, HIV-1; conditions: for Gag Δp6 in S1 and P1 fractions: gagΔp6, same conditions; for viral protein in P1 fraction / viral protein in S1 fraction: wild-type gag, pol, rev, conditions of greatest inhibition
# [2] = test system: HIV-1 particles; experiment: Release of HIV-1 virus-like particles from transfected COS-1 cells (Western blot of particles, anti-CA); type: cell-based; conditions: for amount of mature CA in released virus, of the control (0 μM pa) level: COS-1 cells with rev, pol and wild-type gag
# [3] = target: T1, Tsg101 (Homo sapiens, UniProt Q99816); conditions: N- or C-terminally deleted Pr55^Gag fused to GAL4 DNA-binding domain; FIG. 1A
# T1 construct: expressed in transfected cells; host or cells: Saccharomyces cerevisiae Y153
# Protocol: 2-hybrid assay. […] Vectors pGBT9 and pGAD424 encoding PR55^Gag or Tsg101 sequences as GAL4 activation and binding domain fusion proteins were transformed into Saccharomyces cerevisiae Y153 using procedures previously described (Bartel, P. L. & Fields, S., 1995, Methods Enzymol. 254,241-263). Briefly, interactions were detected using a selection for Trp and Leu prototrophy followed by quantitative assay for LacZ activation. […] Mapping of the interacting domain was performed using vectors encoding the DNA-binding or activation domain of the yeast GAL4 transcriptional activator protein fused to truncations, deletions or point mutations of the proteins. […] Expression of all GAL4 fusions was checked by analysis of yeast cell extracts by SDS-gel electrophoresis and Western blotting with an antibody directed against the GAL4 binding domain (Upstate Biochemical) and GAL4 transactivation domain (Santa Cruz).
# [4] = increasing expression, pa 1 and 5 μM, wild-type gag
Molecule,Gag Δp6 in S1 and P1 fractions [1],viral protein in P1 fraction [1],viral protein in S1 fraction [1],"amount of mature CA in released virus, of the control (0 μM pa) level ([2]; 1 μM pa)","amount of mature CA in released virus, of the control (0 μM pa) level ([2]; 5 μM pa)","release of immature particles containing GagΔp6 ([2]; Tsg101 overexpression, pa 0, 1, 5 μM, gagΔp6)","Gag processing in released particles [2, 4]","release of virus particles [2, 4]",LacZ reporter gene activation signal [3]
B1,detected in both S1 and P1 fractions,no detectable viral protein,no detectable viral protein,~60%,~30%,not significantly affected,–,–,–
B2,accumulated at higher levels in both fractions,no protein was found,detectable levels of viral protein,–,–,–,accumulation of particle-associated uncleaved Gag precursor,permitted release of virus particles,–
B3,–,–,–,–,–,–,–,–,retained
